Consider 15 molecules from US20230144436A1, “MUSCLE TARGETING COMPLEXES AND USES THEREOF FOR TREATING MYOTONIC DYSTROPHY” (Dyne Therapeutics, Inc., priority 2020, published 2023).

In assay [1] the test system is DMPK. Nature of the assay: DMPK knockdown by anti-TfR1 antibody-oligonucleotide conjugates in NHP myotubes. The assay is classed as cell-based, non-human primate. To be noted: conjugate with control DMPK-ASO, 72 hours, concentration not stated (0.5, 5, 50 nM tested). On the procedure:
(§1) The purified complexes were then tested for cellular internalization and inhibition of the target gene, DMPK. Non-human primate (NHP) or DM1 (donated by DM1 patients) cells were grown in 96-well plates and differentiated into myotubes for 7 days. Cells were then treated with escalating concentrations (0.5 nM, 5 nM, 50 nM) of each complex for 72 hours. Cells were harvested, RNA was isolated, and reverse transcription was performed to generate cDNA. qPCR was performed using TaqMan kits specific for Ppib (control) and DMPK on the QuantStudio 7. The relative amounts of remaining DMPK transcript in treated vs non-treated cells was were calculated and the results are shown in Table 14 and FIG. 20.
as §1, with “of” for “of the target gene,”, “in” for “in Table 14 and”, “23.” for “20.”

Assay [2] deals with DMPK. Nature of the assay: DMPK knockdown by anti-TfR1 antibody-oligonucleotide conjugates in DM1 patient myotubes. To be noted: for % knockdown of DMPK in cells from human DM1 patients using Antibody-DMPK ASO conjugate: DM1 patient myotubes, conjugate with control DMPK-ASO, 72 hours, concentration not stated (0.5, 5, 50 nM tested); for activity in delivering a payload (DMPK ASO) and achieving DMPK knockdown compared to the control antibody 15G11: conjugates with control DMPK-ASO, in either cyno cells or human DM1 patient cells. Type of assay: cell-based, human. On the procedure: as §1
as §1, with “of” for “of the target gene,”, “in” for “in Table 14 and”, “23.” for “20.”

The target of the next assay is hTfR1 (Homo sapiens, UniProt P02786). Nature of the assay: Binding kinetics of anti-TfR1 antibodies on Carterra LSA, hTfR1. Particulars: Carterra LSA at 25 C. Here is the method:
Selected anti-TfR1 antibodies were tested for their binding affinity to human TfR1 for measurement of Ka (association rate constant), Kd (dissociation rate constant), and KD (affinity). […] The binding experiment was performed on Carterra LSA at 25 C. An anti-mouse IgG and anti-human IgG antibody “lawn” was prepared on a HC30M chip by amine coupling. 59 IgGs (58 mouse mAbs and 1 human mAb) were captured on the chip. Dilution series of hTfR1, cyTfR1, and hTfR2 were injected to the chip for binding (starting from 1000 nM, 1:3 dilution, 8 concentrations).
Binding data were referenced by subtracting the responses from a buffer analyte injection and globally fitting to a 1:1 Langmuir binding model for estimate of Ka (association rate constant), Kd (dissociation rate constant), and KD (affinity) using the Carterra™ Kinetics software. 5-6 concentrations were used for curve fitting.

hTfR1, sequence (P02786 whole entry): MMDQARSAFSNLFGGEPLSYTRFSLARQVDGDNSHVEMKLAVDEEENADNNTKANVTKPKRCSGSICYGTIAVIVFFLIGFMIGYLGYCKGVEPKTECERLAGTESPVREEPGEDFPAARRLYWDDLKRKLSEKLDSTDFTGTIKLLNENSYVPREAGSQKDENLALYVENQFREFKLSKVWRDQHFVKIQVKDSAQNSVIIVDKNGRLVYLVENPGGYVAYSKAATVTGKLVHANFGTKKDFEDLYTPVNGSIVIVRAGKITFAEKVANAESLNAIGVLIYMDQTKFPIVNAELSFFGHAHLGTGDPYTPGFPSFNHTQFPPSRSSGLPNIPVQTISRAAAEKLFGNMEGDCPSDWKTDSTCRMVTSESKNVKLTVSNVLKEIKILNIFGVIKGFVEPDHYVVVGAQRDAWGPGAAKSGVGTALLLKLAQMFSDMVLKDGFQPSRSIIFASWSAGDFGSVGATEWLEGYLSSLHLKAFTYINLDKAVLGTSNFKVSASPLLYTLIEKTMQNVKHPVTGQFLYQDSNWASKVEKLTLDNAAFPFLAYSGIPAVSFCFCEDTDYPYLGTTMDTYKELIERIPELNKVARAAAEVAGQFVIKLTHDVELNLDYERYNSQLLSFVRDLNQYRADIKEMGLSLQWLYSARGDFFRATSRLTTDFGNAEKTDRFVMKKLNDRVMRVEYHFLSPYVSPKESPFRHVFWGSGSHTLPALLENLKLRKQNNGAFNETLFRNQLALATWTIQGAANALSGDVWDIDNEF

B1: 9-D4 (antibody, V domains shown)
VH: QVQLQQSGTELARPGASVKLSCKASGFTFTDYGINWVKQRTGQGLEWIGEIYPSSGNSYYNEKFKAKATLTADKSSSTAYMELRSLTSEDSAVYFCARSTYYGSPIDYWGQGTTLTVSS
VL: DIVMTQSHKFMSTPVGDRVSITCKASQDVDTTVAWYQQKPGQSPKLLIYWASTRQIGVPDRFTGSGSGTDFTLTISNVQSEDLADYFCQQYSTYPLTFGGGTKLEIK
As to B1, in the assay on DMPK [1], the “% knockdown of DMPK in NHP cells using Antibody-DMPK ASO conjugate” value (“% knockdown of DMPK in NHP cells” for short) came out at 42%. Further, in the assay on DMPK [2], the “% knockdown of DMPK in cells from human DM1 patients using Antibody-DMPK ASO conjugate” value (“% knockdown of DMPK in cells” below) is given as 62%; the “activity in delivering a payload (DMPK ASO) and achieving DMPK knockdown compared to the control antibody 15G11” value is recorded as “superior activity”.

B2: 9-D04 (antibody, V domains shown)
VH: QVQLQQSGTELARPGASVKLSCKASGFTFTDYGINWVKQRTGQGLEWIGEIYPSSGNSYYNEKFKAKATLTADKSSSTAYMELRSLTSEDSAVYFCARSTYYGSPIDYWGQGTTLTVSS
VL: DIVMTQSHKFMSTPVGDRVSITCKASQDVDTTVAWYQQKPGQSPKLLIYWASTRQIGVPDRFTGSGSGTDFTLTISNVQSEDLADYFCQQYSTYPLTFGGGTKLEIK
On to B2, for which, in the assay with hTfR1, the “dissociation rate constant (koff)” value is 246 µM.

B3: 8-D15: anti-TfR1 antibody, VH SEQ ID NO: 132, VL SEQ ID NO: 133 (antibody, V domains shown)
VH: QVQLKESGPGLVAPSQSLSITCTVSGFSLTSYAITWVRQSPGKGLEWLGLIWTGGGTNYNSALKSRLSISKDNSKSQVFLKMNSLQTDDTARYYCARIYDGYYRYFDVWGTGTTVTVSS
VL: RIVLTQTPKFLLVSAGDRVTMTCKASQSVSNDVAWYQQKPGQSPKLLIYYASNRYTGVPDRFTGSGYGTDFTFTISTVQAEDLAVYFCQQDYSSPWTFGGGTKLEIK
For B3, the “dissociation rate constant (koff)” value with hTfR1 came to 257 µM.

B4: 6-D03 (antibody, V domains shown)
VH: QVQLQQPGAELVKPGASVKMSCKASGYTFTRHWITWVKQRPGQGLEWIGDIYPGSGRTNYNEKFKSTATLTVDTSSSTAYMQLSSLTSEDSAVYYCARDGYLYINYFDYWGQGTTLTVSS
VL: ENVLTQSPAIMSASPGEKVTMTCSASSSVSFMHWFQQKSSTSPKLWIYDTSKLASGVPGRFSGSGSGSSYSLTISSMAAEDVATYYCFQGSGYPYTFGGGTKLEIK
Take B4: in the assay with hTfR1, the “dissociation rate constant (koff)” value was determined as 107 µM.

B5: 6-D3 (antibody, V domains shown)
VH: QVQLQQPGAELVKPGASVKMSCKASGYTFTRHWITWVKQRPGQGLEWIGDIYPGSGRTNYNEKFKSTATLTVDTSSSTAYMQLSSLTSEDSAVYYCARDGYLYINYFDYWGQGTTLTVSS
VL: ENVLTQSPAIMSASPGEKVTMTCSASSSVSFMHWFQQKSSTSPKLWIYDTSKLASGVPGRFSGSGSGSSYSLTISSMAAEDVATYYCFQGSGYPYTFGGGTKLEIK
For the molecule B5, the “% knockdown of DMPK in NHP cells” value in the assay with DMPK [1] is −8%. Moreover, in the assay with DMPK [2], the “% knockdown of DMPK in cells” value is reported as −5%.

B6: 8-K6 (antibody, V domains shown)
VH: QVHLQQPGAELVKPGASVKMSCKASGYTFTSYWITWVKQRPGQGLEWIGDIFPNSGRTNYDEKFKSKATLTVDTSSSTAYMQLSSLTSEDSAVYFCAREGNFGSLDYWGQGTTLTVSS
VL: QIVLTQSPAIMSASPGEKVTMTCSANSNLNYMNWYHQKSGTSPKRWIYDTSKLASGVPARFSASGSGTSYSLTISSMEAEDAATYYCQQWSRNPLTFGAGTRLELK
Regarding B6, the “% knockdown of DMPK in NHP cells” value with DMPK [1] was 73%. In the assay with DMPK [2], the “% knockdown of DMPK in cells” value was determined as 34%; the “activity in delivering a payload (DMPK ASO) and achieving DMPK knockdown compared to the control antibody 15G11” value is given as “superior activity”.

B7: 8-K06 (antibody, V domains shown)
VH: QVHLQQPGAELVKPGASVKMSCKASGYTFTSYWITWVKQRPGQGLEWIGDIFPNSGRTNYDEKFKSKATLTVDTSSSTAYMQLSSLTSEDSAVYFCAREGNFGSLDYWGQGTTLTVSS
VL: QIVLTQSPAIMSASPGEKVTMTCSANSNLNYMNWYHQKSGTSPKRWIYDTSKLASGVPARFSASGSGTSYSLTISSMEAEDAATYYCQQWSRNPLTFGAGTRLELK
As for B7, the “dissociation rate constant (koff)” value with hTfR1 turned out to be 10 µM.

B8: 10-H02 (antibody, V domains shown)
VH: EVQLVESGGDLVKPGGSLKLSCAASGFTFSDYGMHWVRQGPEKGLEWVAYINSGSSTIYYADTVKGRFTISRDNAKNTLFLQMTSLRSEDTAMYYCARPGDYDNYAMDYWGQGTSVTVSS
VL: DIVMTQSHKFLSTSVGDRVSITCKASQDVSVAVAWYQQKPGQSPKLLIYWAYTRHTGVPDRFTGSGSGTEYTLTISSVQAEDLALYYCQQHYNTPPWTFGGGTKLEIK
In the case of B8, the “dissociation rate constant (koff)” value in the assay with hTfR1 came to 342 µM.

B9: 4-C05 (antibody, V domains shown)
VH: QVQLQQSGAELMKPGASVKISCKATGYTFSNYWIEWVKQRPGHGLEWIGEILPGSGSTNYNENFKGKATFTADTSSNTAYMQLSSLTSEDSAVYYCARRGAYGNFHYWGQGTTLTVSS
VL: EIVLTQSPALMAASPGEKVTITCSVSSSISSSNLHWYQQKSETSPKPWIYGTSNLASGVPVRFSGSGSGTSYSLTISSMEAEDAATYYCQQWRSYPYTFGGGTKLEIK
On to B9, for which the “dissociation rate constant (koff)” value with hTfR1 was found to be 48.5 µM.

B10: 3-E5 (antibody, V domains shown)
VH: EIQMKQSGAELVKPGASVKISCKASGYSFTGYNMNWVKQSHGKSLEWIGNINPYYGSTGYNQKFKGKATLTVDKSSSTAYMQLNSLTSEDSAVYYCARGDYGYDEGTWFAYWGQGTLVTVSA
VL: DIVMSQSPSSLAVSAGEKVTMSCKSSQSLLNSRTRKNYLAWYQQKPEQSPKLLIYWASTRESGVPDRFTGSGSGTDFTLTISSVQAEDLAVYYCKQSYNLPFTFGSGTKLEIK
As for B10, the “% knockdown of DMPK in NHP cells” value in the assay with DMPK [1] amounted to 59%. Moreover, in the assay on DMPK [2], the “% knockdown of DMPK in cells” value stood at 71%; the “activity in delivering a payload (DMPK ASO) and achieving DMPK knockdown compared to the control antibody 15G11” value was “superior activity”.

B11: 3-E05 (antibody, V domains shown)
VH: EIQMKQSGAELVKPGASVKISCKASGYSFTGYNMNWVKQSHGKSLEWIGNINPYYGSTGYNQKFKGKATLTVDKSSSTAYMQLNSLTSEDSAVYYCARGDYGYDEGTWFAYWGQGTLVTVSA
VL: DIVMSQSPSSLAVSAGEKVTMSCKSSQSLLNSRTRKNYLAWYQQKPEQSPKLLIYWASTRESGVPDRFTGSGSGTDFTLTISSVQAEDLAVYYCKQSYNLPFTFGSGTKLEIK
As for B11, the “dissociation rate constant (koff)” value in the assay with hTfR1 turned out to be 10 µM.

B12: 9-C04 (antibody, V domains shown)
VH: EVQLMESGGDLVKPGGSLKLSCAASGFTFSSYGLSWVRQTPDKRLEWVATITSGGSYTYYPDSVKGRFTISRDNARNTLYLQMFSLKSEDTAMYYCALWSLDYWGQGTTLTVSS
VL: QIVLTQSPAIMSASPGEKVTMTCSANSSLSYMHWYQQKPGTSPKRWIYDTSELASGVPARFSGSGSGTSYSLTISSMEAEDAATYYCHQRRSYPWTFGGGTKLEIK
B12: in the assay with hTfR1, the “dissociation rate constant (koff)” value came out at 575 µM.

B13: 3-A4 (antibody, V domains shown)
VH: EVQLQQSGAELVRPGASVKLSCTASGFNIKDDYMYWVKQRPEQGLEWIGWIDPENGDTEYASKFQDKATVTADTSSNTAYLQLSSLTSEDTAVYYCTLWLRRGLDYWGQGTSVTVSS
VL: DIVMTQAAPSVPVTPGESVSISCRSSKSLLHSNGYTYLFWFLQRPGQSPQLLIYRMSNLASGVPDRFSGSGSGTAFTLRISRVEAEDVGVYYCMQHLEYPFTFGGGTKLEIK
Consider B13, for which the “% knockdown of DMPK in NHP cells” value in the assay on DMPK [1] is 77%. For the same molecule, in the assay with DMPK [2], the “% knockdown of DMPK in cells” value came out at 70%; the “activity in delivering a payload (DMPK ASO) and achieving DMPK knockdown compared to the control antibody 15G11” value is reported as “superior activity”.

B14: 3-A04 (antibody, V domains shown)
VH: EVQLQQSGAELVRPGASVKLSCTASGFNIKDDYMYWVKQRPEQGLEWIGWIDPENGDTEYASKFQDKATVTADTSSNTAYLQLSSLTSEDTAVYYCTLWLRRGLDYWGQGTSVTVSS
VL: DIVMTQAAPSVPVTPGESVSISCRSSKSLLHSNGYTYLFWFLQRPGQSPQLLIYRMSNLASGVPDRFSGSGSGTAFTLRISRVEAEDVGVYYCMQHLEYPFTFGGGTKLEIK
With B14, the “dissociation rate constant (koff)” value in the assay with hTfR1 was 195 µM.

B15: 5-H12 (antibody, V domains shown)
VH: QIQLQQSGPELVRPGASVKISCKASGYSFTDYCINWVNQRPGQGLEWIGWIYPGSGNTRYSERFKGKATLTVDTSSNTAYMQLSSLTSEDSAVYFCAREDYYPYHGMDYWGQGTSVTVSS
VL: DIVLTQSPTSLAVSLGQRATISCRASESVDGYDNSFMHWYQQKPGQPPKLLIFRASNLESGIPARFSGSGSRTDFTLTINPVEAADVATYYCQQSSEDPWTFGGGTKLEIK
For B15, in the assay with DMPK [1], the “% knockdown of DMPK in NHP cells” value is 88%. For the same molecule, in the assay with DMPK [2], the “% knockdown of DMPK in cells” value amounted to 57%; the “activity in delivering a payload (DMPK ASO) and achieving DMPK knockdown compared to the control antibody 15G11” value was “superior activity”.
